Source: patent US20190248902A1 (published 2019)

T1: human ASGR-1 (wild type) (human, UniProt P07306 1-291)
T1 construct: also called wt ASGR1; huASGR-1
T1 sequence: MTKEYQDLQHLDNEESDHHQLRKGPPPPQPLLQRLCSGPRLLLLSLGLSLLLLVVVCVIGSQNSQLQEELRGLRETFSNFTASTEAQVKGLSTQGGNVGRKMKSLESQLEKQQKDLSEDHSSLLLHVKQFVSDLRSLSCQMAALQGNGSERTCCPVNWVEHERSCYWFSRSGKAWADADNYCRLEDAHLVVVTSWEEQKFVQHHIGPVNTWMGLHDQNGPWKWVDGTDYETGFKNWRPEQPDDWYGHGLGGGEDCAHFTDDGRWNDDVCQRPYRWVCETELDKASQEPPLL

T2: soluble human ASGR-1 carbohydrate binding domain (CBD; amino acid residues 154-281; N-terminal 6xHis tag) (human, UniProt P07306 154-281)
T2 construct: also called ASGR-1 CBD
T2 sequence: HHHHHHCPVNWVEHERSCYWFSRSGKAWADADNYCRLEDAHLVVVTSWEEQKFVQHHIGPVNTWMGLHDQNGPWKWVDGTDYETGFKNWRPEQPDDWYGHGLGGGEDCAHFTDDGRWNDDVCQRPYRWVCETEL

T3: human ASGR-1 mutant construct H203 (human, UniProt P07306 1-291)
T3 construct: Arg/Glu scanning: non-arginine residues were changed to arginine; Transiently expressed on CHO-S cells
T3 sequence: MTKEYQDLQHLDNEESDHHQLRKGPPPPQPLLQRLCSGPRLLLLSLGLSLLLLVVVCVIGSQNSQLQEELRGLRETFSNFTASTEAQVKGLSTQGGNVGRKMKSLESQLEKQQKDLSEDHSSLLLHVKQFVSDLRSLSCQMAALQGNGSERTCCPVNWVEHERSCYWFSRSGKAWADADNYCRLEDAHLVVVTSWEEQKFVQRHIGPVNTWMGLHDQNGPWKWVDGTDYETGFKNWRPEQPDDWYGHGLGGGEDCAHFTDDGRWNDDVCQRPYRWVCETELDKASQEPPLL


Experiments:
[1] = target: T1, human ASGR-1 (wild type); test: flow cytometry, CHO-S:huASGR-1 cells, 11-point titration
Experimental: CHO—S stable high-expressing cell line were developed for both human ASGR-1 as well as mouse ASGR-1. A typical 384 well plate multiplex flow cytometery-based cell binding method is described as followed: Parental CHO—S cells and CHO—S:huASGR-1 cells were respectively labeled using a CellTrace CFSE Cell Proliferation Kit (ThermoFisher Catalog #C34554) and CellTrace Violet Cell Proliferation Kit (ThermoFisher Catalog#C34557) CHO—S:muASGR-1 were not labeled. 20 ul of cells at 4C were added to duplicate wells of the 384 well plate. The cells were equally mixed from all three cell lines (30K cells/well). Then 20 ul of the ASGR-1 antibodies (either purified from hybridoma supernatants or made recombinantly) were added in an 11-point dose response using a 1:2 fold serial dilution starting at 100 nM. The cells and antibodies were incubated for 30 min at 4C and then spun down and washed twice with FACS buffer containing 1 mM CaCl2. 30 ul of anti-hulgG-APC secondary antibodies were then added at a 1:1000 dilution) for 30 min at 4C and then washed once with the same buffer. 60 ul of PI (1:1000) was added and then the cells were read by a core flow cytometry facility. The cells were gated first for live cells, then for single cells and finally for the cell dyes to separate the mixed cells into the three different cell populations. Histograms of signal vs count representing the binding profile of each antibody at each antibody concentration were automatically analyzed for the median of the binding signal and then a binding graph was made with log 10 antibody concentration in nM on the X axis with […] from the duplicate wells on the Y-axis. The binding curves were fit with a standard four parameter sigmoidal binding curve and EC50's reported for all graphs with full curves.

[2] = target: T2, soluble human ASGR-1 carbohydrate …; test: Octet BLI, mAb on AR2G tips, 1:1 fit
From the text: To quantitate the binding affinity of specific antibodies for ASGR-1 (either purified from hybridoma supernatants or made recombinantly), association and dissociation rates can be measured using a ForteBio Octet instrument. […] Experimental kinetic results were globally fit to a 1:1 binding model in order to determine the association and dissociation rate constants as well as the equilibrium dissociation constant. Association and dissociation times were chosen to ensure that curvature was present during association curves and measured dissociation levels dropped at least 5% from starting levels. All Octet buffers contained 10 mM Tris (pH7.5), 150 mM NaCl, 1 mM CaCl₂), 0.10 mg/ml BSA and 0.13% Triton X-100. Octet assays were run at 27° C. Because this assay only measures binding to the ASGR-1 CBD, antibodies that recognize epitopes partially or entirely outside the CBD and/or recognize ASGR-1 in the context of a native ASGR complex, for example, as could occur on cell membranes, may not score as positive in this assay.

[3] = target: T3, human ASGR-1 mutant construct H203; test: FACS, transfected CHO-S cells, mAb 5 ug/ml
Method in brief: (§1)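 Transiently transfected CHO-S cells expressing wild-type or mutant hASGR-1 incubated with antibody at 5 ug/ml, 1 h at 4 °C; bound antibody detected by Alexa Fluor 647 anti-Fc plus 7-AAD, by flow cytometry. Binding normalized to expression using an unaffected antibody (65C12), then to wild type; hits defined as >3× IQR above third quartile.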

[4] = target: T1, human ASGR-1 (wild type); test: FACS, transfected CHO-S cells, mAb 5 ug/ml
Method in brief: as §1

[5] = target: T3, human ASGR-1 mutant construct H203; test: FACS ratio: 65C12 geomean / this mAb geomean
Method in brief: (§2)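 Value is the geomean of reference antibody 65C12 divided by that of the test mAb, correcting for construct expression. Binding was measured by flow cytometry on transiently transfected CHO-S cells after 1 h at 4 °C with antibody at 5 ug/ml. Detection used an anti-Fc Alexa 647 secondary, with 7-AAD to exclude dead cells.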

[6] = target: T1, human ASGR-1 (wild type); test: FACS ratio: 65C12 geomean / this mAb geomean
Method in brief: as §2

[7] = target: T3, human ASGR-1 mutant construct H203; test: FACS ratio: H203 normalized value / wt normalized value
Method in brief: as §1

Binder	EC50 [1] [nM]	Kd [2] [nM]	FACS Binding Geomean [3]	FACS Binding Geomean [4]	Expression Normalization to mAb 65C12 [5]	Expression Normalization to mAb 65C12 [6]	Normalization to wt ASGR1 Binding [7]
4H6 (antibody, V domains shown, mAb) VH: QVQLVQSGAEVKKPGASVKVSCKASGYTFTDYYLHWVRQAPGQGLEWMGWIHPNSGGTNYAQKFQGRVTMTRDTSISTAYMGLSSLRSDDTAVYYCARDGTSSFDYWGQGTLVTVSS VL: DIQMTQSPSSVSASVGDRVTITCRASQGISRWLAWYQQKPGKAPKLLIYGASSLQSGVPSRFSGSGSGTDFTLTISSLQPEDFAIYYCQQANSFPFTFGPGTKVDIK	1.7	4.8	–	–	–	–	–
54E9 (antibody, V domains shown, mAb) VH: QVQLVQSGAEVKKPGASVKVSCKASGYTFNSYGISWVRLAPGQGLEWMGWISAYNGNTKNAQKLQGRVTMTTDTSTSTAYMELRSLRSDDTAVYYCARHDFWSGYYKGMDVWGQGTTVTVSS VL: not shown	5	–	15300	38600	1.68	1.45	1.16
202A3 (antibody, V domains shown, mAb) VH: QVQLEQSGAEVKKPGASVKVSCKASGYTFTSYDINWVRQATGQGLEWLGWMNPKRGNTGYAQKFQGRVTMTRNTSISTAHMELSSLRSEDTAVYYCARGRYSREDYYYYYDMDVWGQGTTVTVSS VL: DIQMSQSPSSLSASVGDRVTITCRASQGIRNDLGWYQQKPGKAPKRLICAASRLQSGVPSRFSGSGSGTEFTLTISSLQPEDFAIYYCLQHHDYPFTFGPGTKVDIK	0.8	–	12500	24800	2.06	2.26	0.913
7F4 (antibody, V domains shown, mAb) VH: QLQLQESGPGLVKPSETLSLTCTVSGGSISRSSYYWGWIRQPPGKGLEWIGNIYYSGATYYNPSLKSRVTISVDTSTNQFSLKLSSVTAADTAVYYCARHSGSWSLDYWGQGTLVTVSS VL: DIQMTQSPSSLSASVGDRVTITCRTSQGIRNDLGWYQQKPGKAPKRLIYAASNLQSGVPSRFSGSGSGTEFTLTISSLQPEDFATYYCLQHSAYPLTFGGGTKVEIK	5.4	1.2	–	–	–	–	–
198D2 (antibody, V domains shown, mAb) VH: QVQLVESGGGVVQPGRSLRLSCAASGFTFRSYGMHWVRQAPGKGLEWVAVIIYDGSYKYYADSVKGRFTISRDNSKNTLYLQMNSLRAEDTAVYYCARTYSGGMDVWGQGTTVTVSS VL: QSVLTQPPSVSAAPGQKVTISCSGSSSNIGSNYVSWYQQLPGTAPKVLIYDNNKRPSGIPDRFSGSKSGTSATLGITGLQTGDEADYYCGTWDSRLNVGVFGGGTKLTVL	0.14	–	7140	16900	3.61	3.32	1.09
4B1 (antibody, V domains shown, mAb) VH: QVQLQESGPGLVKPSETLSLTCSVSGDSISSYSWSWIRQPAGKGLEWIGRIYTSGSTNYIPSLKSRITMSVDTSKKQFSLKLSSVTAADTAVYYCARDLKSSGCLFFDYWGQGTLVTVSS VL: DIQMTQSPSSLSASVGDRVTITCRASHTIRTYLNWYQQKPGKAPKLLIYAASSLQSGVPSRINGSGSGTDFTLTITNLQPEDFATYYCQQSYNISFTFGPGTKVDIK	4.1	–	–	–	–	–	–
12D2 (antibody, V domains shown, mAb) VH: EVQLVESGGGLVKPGGSLRLSCAASGFTFSSYSMNWVRQAPGKGLEWVSSISSSSSYIYYADSVKGRFTISRDNAKNSLYLQMNSLRAEDTAVYYCARLGDYWGQGTLVAVSS VL: not shown	3.2	–	–	–	–	–	–
